The text below walks through data of patent US6165749.

This data set relates to AccIII restriction endonuclease (L2V) L2V. Briefly: cleavage_in_vitro. The settings on record: Takara data sheet conditions; about 16 times the level of the Acc bacterium.

Regarding “AccIII assay substrate DNA (data sheet conditions)”, the activity (units per g wet cells) was determined as 8000.
